± gives the standard deviation of the averaged measurements.
Columns and labels:
Saccharomyces cerevisiae [1] = test: protein stability index of tFT-peptide fusion in wild type (PSI (0-1 scale)); higher = more stable (slower turnover); details: genetic background: wild type
Saccharomyces cerevisiae [2] = test: protein stability index of tFT-peptide fusion in deletion strain of DOA10 (PSI (0-1 scale)); higher = more stable (slower turnover)
Experimental: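 MPS profiling in S. cerevisiae of two library types built from selected 12-aa C-degron peptides (IN1, IN2, LN1, LN3, VN2, R1-R5, W1-W3, Atg1 and Rpa12 C-termini): saturation mutagenesis libraries and C-terminal +1 capping libraries (13 aa). Each peptide is fused to the C-terminus of a sfGFP-mCherry timer, after a GGGS linker. Cells are FACS-sorted into 8 mCherry/sfGFP bins and sequenced. PSI runs from 0 (unstable) to 1 (stable), measured once in wild type and in the das1Δ or doa10Δ background.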

Saccharomyces cerevisiae [3] = test: protein stability index of tFT-peptide fusion (C-terminal peptide) (PSI (0-1 scale)); higher = more stable (slower turnover)
Experimental: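 MPS profiling in S. cerevisiae of the tFT-X12 degron library: putative degron peptides plus stable controls, 12 aa, fused to the C-terminus of a sfGFP-mCherry timer. Cells are FACS-sorted into 8 mCherry/sfGFP bins and deep-sequenced. PSI runs from 0 (unstable) to 1 (stable). Backgrounds are wild type, das1Δ and doa10Δ at 30 °C, and wild type, das1Δ, cdc34-1 and cdc53-1 at 37 °C; 2-3 technical replicates each.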

Saccharomyces cerevisiae [4] = test: as above; details: genetic background: wild type; temperature: 30 C
Saccharomyces cerevisiae [5] = test: protein stability index of tFT-peptide fusion in deletion strain of DAS1 (PSI (0-1 scale)); higher = more stable (slower turnover)
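Wherever protein stability index of tFT-peptide fusion (C-terminal peptide) is given: PSI is a weighted mean of sequencing reads over stability bins, variants kept only with over 10 reads, mCherry proximal and sfGFP distal, peptide attached via GGGS linker.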
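Wherever protein stability index of tFT-peptide fusion in deletion strain of DAS1 is given: PSI is a weighted mean of each variant's read distribution over the sorted stability bins, computed only for variants having over 10 reads in total.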
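Wherever protein stability index of tFT-peptide fusion in deletion strain of DOA10 is given: PSI per variant is the weighted mean of its sequencing read distribution over the sorted stability bins, counting only variants with over 10 reads summed across bins.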
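Wherever protein stability index of tFT-peptide fusion in wild type is given: PSI derived as read-weighted mean over the 8 sorting bins, only variants exceeding 10 total reads kept, mCherry placed adjacent to the peptide and sfGFP distal.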

| Sequence | protein stability index (Saccharomyces cerevisiae [1]) | protein stability index (Saccharomyces cerevisiae [2]) | other results |
| --- | --- | --- | --- |
| ACTLPMCPLLLR | 0.318 | 0.678 | – |
| AIKLPMCPLLLR | 0.276 | 0.652 | – |
| AINLPMCPLLLR | 0.243 | 0.656 | – |
| AITAPMCPLLLR | 0.472 | 0.66 | – |
| AITDPMCPLLLR | 0.603 | 0.693 | – |
| AITEPMCPLLLR | 0.593 | 0.648 | – |
| AITLPMCDLLLR | 0.639 | 0.675 | – |
| AITLPMCELLLR | 0.511 | 0.676 | – |
| AITLPMCFLLLR | 0.0902 | 0.62 | – |
| AITLPMCKLLLR | 0.392 | 0.663 | – |
| AITLPMCPKLLR | 0.643 | 0.671 | – |
| AITLPMCPLHLR | 0.566 | 0.68 | – |
| AITLPMCPLILR | 0.238 | 0.656 | – |
| AITLPMCPLKLR | 0.549 | 0.668 | – |
| AITLPMCPLLLD | 0.608 | 0.684 | – |
| AITLPMCPLLLK | 0.269 | 0.653 | – |
| AITLPMCPLLLM | 0.505 | 0.545 | – |
| AITLPMCPLLRR | 0.62 | 0.717 | – |
| AITLPMCPLLSR | 0.573 | 0.594 | – |
| AITLPMCPLLTR | 0.561 | 0.606 | – |
| AITLPMCPLLYR | 0.529 | 0.652 | – |
| AITLPMCPLQLR | 0.608 | 0.68 | – |

| Sequence | protein stability index (Saccharomyces cerevisiae [1]) | protein stability index (Saccharomyces cerevisiae [2]) | other results |
| --- | --- | --- | --- |
| AITLPMCPLVLR | 0.233 | 0.646 | – |
| AITLPMCPMLLR | 0.392 | 0.661 | – |
| AITLPMLPLLLR | 0.125 | 0.633 | – |
| AITLPMQPLLLR | 0.238 | 0.639 | – |
| AITLPMTPLLLR | 0.229 | 0.644 | – |
| AITLPRCPLLLR | 0.265 | 0.662 | – |
| AIYLPMCPLLLR | 0.268 | 0.617 | – |
| AYTLPMCPLLLR | 0.171 | 0.657 | – |
| CITLPMCPLLLR | 0.118 | 0.635 | – |
| CIVSLPILLFFR | 0.0595 | 0.566 | – |
| CLCSLPILLFFR | 0.106 | 0.615 | – |
| CLFSLPILLFFR | 0.0583 | 0.581 | – |
| CLQSLPILLFFR | 0.0983 | 0.631 | – |
| CLVCLPILLFFR | 0.104 | 0.494 | – |
| CLVSLHILLFFR | 0.144 | 0.292 | – |
| CLVSLPCLLFFR | 0.064 | 0.639 | – |
| CLVSLPILGFFR | 0.625 | 0.661 | – |
| CLVSLPILIFFR | 0.0649 | 0.53 | – |
| CLVSLPILLAFR | 0.115 | 0.594 | – |
| CLVSLPILLDFR | 0.553 | 0.643 | – |
| CLVSLPILLFFD | 0.433 | 0.583 | – |
| CLVSLPILLFFL | 0.293 | 0.45 | – |

| Sequence | protein stability index (Saccharomyces cerevisiae [1]) | protein stability index (Saccharomyces cerevisiae [2]) | other results |
| --- | --- | --- | --- |
| CLVSLPILLFFQ | 0.313 | 0.53 | – |
| CLVSLPILLFFRK | 0.115 | 0.57 | – |
| CLVSLPILLFFRQ | 0.0783 | 0.362 | – |
| CLVSLPILLFFRV | 0.0545 | 0.413 | – |
| CLVSLPILLFFRW | 0.0557 | 0.473 | – |
| CLVSLPILLFFV | 0.206 | 0.385 | – |
| CLVSLPILLFHR | 0.481 | 0.637 | – |
| CLVSLPILLFIR | 0.0496 | 0.46 | – |
| CLVSLPILLFKR | 0.413 | 0.665 | – |
| CLVSLPILLFWR | 0.0447 | 0.638 | – |
| CLVSLPILLFYR | 0.116 | 0.585 | – |
| CLVSLPILSFFR | 0.581 | 0.658 | – |
| CLVSLPISLFFR | 0.101 | 0.656 | – |
| CLVSLPIYLFFR | 0.0617 | 0.607 | – |
| CLVSLPPLLFFR | 0.0903 | 0.661 | – |
| CLVSLPQLLFFR | 0.0822 | 0.655 | – |
| CLVSLSILLFFR | 0.183 | 0.286 | – |
| CLVSVPILLFFR | 0.064 | 0.565 | – |
| CLVSWPILLFFR | 0.0554 | 0.595 | – |
| CLWSLPILLFFR | 0.0887 | 0.594 | – |
| CMVSLPILLFFR | 0.0703 | 0.584 | – |
| GLAMCSVGCWFR | 0.268 | 0.661 | – |

| Sequence | protein stability index (Saccharomyces cerevisiae [1]) | protein stability index (Saccharomyces cerevisiae [2]) | other results |
| --- | --- | --- | --- |
| GLYCCSVGCWFR | 0.342 | 0.658 | – |
| GLYMCIVGCWFR | 0.214 | 0.364 | – |
| GLYMCSLGCWFR | 0.283 | 0.658 | – |
| GLYMCSMGCWFR | 0.321 | 0.676 | – |
| GLYMCSVACWFR | 0.228 | 0.441 | – |
| GLYMCSVGCAFR | 0.614 | 0.629 | – |
| GLYMCSVGCEFR | 0.594 | 0.625 | – |
| GLYMCSVGCQFR | 0.618 | 0.647 | – |
| GLYMCSVGCRFR | 0.625 | 0.654 | – |
| GLYMCSVGCWFE | 0.474 | 0.512 | – |
| GLYMCSVGCWFG | 0.456 | 0.478 | – |
| GLYMCSVGCWFP | 0.607 | 0.636 | – |
| GLYMCSVGCWFRG | 0.334 | 0.635 | – |
| GLYMCSVGCWFRP | 0.287 | 0.62 | – |
| GLYMCSVGCWFRQ | 0.113 | 0.182 | – |
| GLYMCSVGCWFRS | 0.267 | 0.521 | – |
| GLYMCSVGCWFRW | 0.231 | 0.621 | – |
| GLYMCSVGCWGR | 0.625 | 0.659 | – |
| GLYMCSVGCWNR | 0.618 | 0.64 | – |
| GLYMCSVGCYFR | 0.425 | 0.638 | – |
| GLYMCSVGDWFR | 0.677 | 0.689 | – |
| GLYMCSVGIWFR | 0.165 | 0.409 | – |

| Sequence | protein stability index (Saccharomyces cerevisiae [1]) | protein stability index (Saccharomyces cerevisiae [2]) | other results |
| --- | --- | --- | --- |
| GLYMCSVGMWFR | 0.307 | 0.577 | – |
| GLYMCSVKCWFR | 0.415 | 0.462 | – |
| GLYMCSYGCWFR | 0.299 | 0.677 | – |
| GSYMCSVGCWFR | 0.411 | 0.678 | – |
| ILVSLPILLFFR | 0.111 | 0.545 | – |
| KLVSLPILLFFR | 0.0816 | 0.612 | – |
| PSLAASFWRVVG | 0.146 | – | protein stability index (Saccharomyces cerevisiae [3]; genetic background: cdc34-1, temperature: 37 C): 0.595 ± 0.1; protein stability index (Saccharomyces cerevisiae [3]; genetic background: cdc53-1, temperature: 37 C): 0.749 ± 0.016; protein stability index (Saccharomyces cerevisiae [3]; genetic background: das1 deletion, temperature: 30 C): 0.694 ± 0.051; protein stability index (Saccharomyces cerevisiae [3]; genetic background: das1 deletion, temperature: 37 C): 0.7397 ± 0.0053; protein stability index (Saccharomyces cerevisiae [3]; genetic background: doa10 deletion, temperature: 30 C): 0.102 ± 0.031; protein stability index (Saccharomyces cerevisiae [3]; genetic background: wild type, temperature: 30 C): 0.109 ± 0.037; protein stability index (Saccharomyces cerevisiae [3]; genetic background: wild type, temperature: 37 C): 0.243 ± 0.0024; protein stability index (Saccharomyces cerevisiae [4]): 0.197 ± 0.013; protein stability index (Saccharomyces cerevisiae [5]): 0.686 |
| RETRLDAIYFRI | 0.545 | 0.667 | – |
| RKTRLDAIYFRI | 0.49 | 0.628 | – |
| VRGAVGGWRLVGW | 0.666 | – | protein stability index (Saccharomyces cerevisiae [5]): 0.668 |
| VRGAVGGWRPVG | 0.667 | – | protein stability index (Saccharomyces cerevisiae [5]): 0.671 |
| VRGAVGGWRWVG | 0.144 | – | protein stability index (Saccharomyces cerevisiae [5]): 0.682 |
| VRGAVGGWVLVG | 0.202 | – | protein stability index (Saccharomyces cerevisiae [5]): 0.659 |
| VRGAVGGWWLVG | 0.455 | – | protein stability index (Saccharomyces cerevisiae [5]): 0.669 |
| VRGAVGVWRLVG | 0.16 | – | protein stability index (Saccharomyces cerevisiae [5]): 0.665 |
| VRGIVGGWRLVG | 0.171 | – | protein stability index (Saccharomyces cerevisiae [5]): 0.682 |
| VRGQVGGWRLVG | 0.147 | – | protein stability index (Saccharomyces cerevisiae [5]): 0.677 |
| VRRAVGGWRLVG | 0.145 | – | protein stability index (Saccharomyces cerevisiae [5]): 0.695 |
